The record followed here is patent US20100209422A1 (ROCKEFELLER UNIVERSITY, published 2010).

Test [1] concerns the target T1, protofibrillar (PF) form of Aβ42 (human).
T1 construct: also called PF Aβ42; protofibril form of Aβ
The test is described as follows: SPR (BIAcore), ratio of PF binding to LMW binding. On the procedure: (§1) The purified monoclonal antibodies listed in Table 1 (below), were immobilized to a BIAcore sensor chip in accordance with publish protocols. (Nice, et al. BioEssays 21: 339-352 (1999)). The high sensitivity of the BIAcore optical response quantifies a change in reflectivity and a baseline response for the ligand alone is generated. The interaction analysis is performed as the analytes, the LMW form or the PF form of […], are injected in solution over the sensor chip and the change in surface plasmon resonance generates a response identifying the specificity of each antibody's ability to bind LMW and PF Aβ42. Both the 13C3 and the 19A6 antibodies all bound to the PF form of Aβ 42 with higher specificity than the LMW form.

Test [2] has as its target T1, protofibrillar (PF) form of Aβ42. As to the kind of experiment: SPR (BIAcore), ratio of PF binding to LMW binding. As to the method:
as §1
Automated BIAcore systems, which use the detection principle of Surface Plasmon Resonance, were used in these experiments.
The source holds these as a separate data set.

T1 sequence (peptide, as listed by the source): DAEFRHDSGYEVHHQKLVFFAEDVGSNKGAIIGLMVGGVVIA

B1: monoclonal antibody 13C3 (antibody, IgG1, V domains shown)
VH: QVQLQQSGPELVRPGVSVKISCKGSGYTFTDYAMHWVKQSHAKSLEWIGVISTKYGKTNYNQKFKGKATMTVDKSSSTAYMELARLTSEDSAIYYCARGDDGYSWGQGTSVTVSS
VL: DVVMTQTPLSLPVSLGDQASISCRSGQSLVHSNGNTYLHWYLQKPGQSPKLLIYTVSNRFSGVPDRFSGSGSGSDFTLKISRVEAEDLGVYFCSQNTFVPWTFGGGTKLEIKR
notes: Hybridoma ATCC PTA-8830; also called mAb 13C3; anti-Aβ antibody clone 13C3
As for B1, the “Ratio (PF/LMW)” value in test [1] amounted to 5. Further, the “binding ratio (PF/LMW)” value in test [2] was found to be 5.3.
